Experiments:
lymphoma cells = assay: CDC susceptibility: inhibitors plus rituximab with 10% active human complement; assay type: cell-based; conditions: concomitant incubation with rituximab
Method: (§1) […] lymphoma cells were exposed to inhibitors of exosome synthesis or release at non-toxic dose ranges. Exosomes were harvested after a 24 h incubation period, and yields were measured by AChE activity (a) and detection of flotillin-2 by Western Blot (b). […] Significant differences to controls without inhibitors (one-way ANOVA with Dunn's post test) are marked with asterices, equivalent results were obtained for the cell lines Balm-3 and Su-DHL-4 (FIG. 10).
(§2) After 24 hours at 37° C., cell viability was determined in triplicates by […] staining as described before. The effect on viability was expressed as the ratio of values from treated versus untreated samples, i.e. specific viability=100× absorbance with antibody treatment/absorbance of untreated control. To detect complement decomposition of C3 in supernatant of exosome coupled to beads, monoclonal antibody 13/15 was coated onto 96-well Medisorp plates (NUNC, Medisorp, Thermo Fisher Scientific) blocked, and washed. Subsequently, appropriately diluted supernatant of exosome:bead complex samples were added to the plate for 60 minutes, washed, and incubated with rabbit anti-C3d for 60 min. After washing, finally anti-rabbit Fc conjugated to horseradish peroxidase (anti-rFc-HRP) was added for 60 minutes, before a further washing and addition of TMB substrate solution. […]

OCI-Ly1 lymphoma cells = assay: Inhibition of exosome shedding by inhibitors (AChE activity, flotillin-2 Western blot); assay type: cell-based, human; conditions: non-toxic dose ranges, 24 h
Method: as §1
5×10^7 lymphoma cells were exposed to inhibitors of exosome synthesis or release at non-toxic dose ranges. Exosomes were harvested after a 24 h incubation period, and yields were measured by AChE activity. Significant differences to controls without inhibitors (one-way ANOVA) are marked with asterices.
(§3) Exosomes were prepared by differential centrifugation according to standard protocols (modified according to Valadi, H. et al. Nat. Cell Biol. 9, 654-659 (2007)). […] Exosomes were quantified by measuring whole protein according to standard protocols (BioRad-DC-Protein-Assay), Western blot detecting flotillin-2 in comparison with whole cells or control exosome preparations, and acetyl-cholin-esterase (AChE) activity as previously described (Savina, A., Fader, C. M., Damiani, M. T., & Colombo, M. I. Traffic. 6, 131-143 (2005)).

exosomal CD20 = molecular target: T1, exosomal CD20 (Homo sapiens, UniProt P11836); assay: Binding of therapeutic anti-CD20 antibodies to lymphoma exosomes (immunogold, Western blot, FACS of exosome-labelled beads); conditions: purified exosome-labelled beads, Su-DHL-4
T1 construct: endogenous in cells; host or cells: exosomes purified from culture supernatants of Balm-3 and Su-DHL-4 lymphoma cells
T1 sequence (P11836 1-297): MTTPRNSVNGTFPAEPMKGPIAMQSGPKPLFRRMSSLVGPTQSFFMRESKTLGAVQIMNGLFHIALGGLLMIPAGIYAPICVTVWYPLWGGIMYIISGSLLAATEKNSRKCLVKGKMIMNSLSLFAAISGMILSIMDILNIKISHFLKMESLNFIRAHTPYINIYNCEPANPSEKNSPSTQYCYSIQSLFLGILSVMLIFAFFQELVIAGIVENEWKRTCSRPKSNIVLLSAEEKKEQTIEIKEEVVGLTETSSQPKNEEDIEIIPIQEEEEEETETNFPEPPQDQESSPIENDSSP
Method: Cells or exosomes coupled to beads were stained with fluorescence-labelled monoclonal antibodies, and analyzed by flow cytometry.
FACS analysis of exosomal surface proteins was carried out after exosomes were coupled to latex beads as previously described (Thery, C., Zitvogel, L., & Amigorena, S, Nat. Rev. Immunol. 2, 569-579 (2002)). Exosomes (40 μg protein) were incubated in 30 μl PBS with 4 μm aldehyde/sulfate latex beads (3 μl of a 4% w/v suspension, Invitrogen) for 15 min., and again for 2 h after addition of 500 μl PBS at room temperature (RT) under constant agitation. The reaction was stopped by addition of 100 μl 1M glycine for 30 min. at RT with gentle agitation, followed by three washes in PBS/0.5% w/v bovine serum albumin (BSA). Antibody staining followed the protocols for antibody staining of cells in suspension.
Detection of membrane-bound fluorescence were performed using standard protocols for flow cytometry. 1×10^5 cells per condition were washed once with PBS and thereafter incubated for 30 min at room temperature and protected from light with either primary antibody or isotype control (both 1:50).

lymphoma cell lines = assay: CDC susceptibility after RNAi silencing of ABCA3; assay type: cell-based, human; conditions: rituximab in the presence of complement, vs lv GFP control
Method: (§4) The effects were measured after incubation for 48 h by AChE activity (b, cell line Balm-3, significance tested by one-way ANOVA), whole exosomal protein (c, significance tested by Student's two-sample t-test), as well as flotillin-2 detection from exosome preparations in the cell culture supernatant (d). Addressing ABCA3 overexpression, 4×10^7 cells of HEK293A, the stable ABCA3 overexpressing cell line HEK293A-ABCA3, as well as K562 cells were incubated for 17 h in 36 ml of exosome-free cell culture medium, and exosome yields measured as total exosomal protein.
as §2, with “min.” for “min. After washing, finally anti-rabbit Fc conjugated to horseradish peroxidase (anti-rFc-HRP) was added for 60 minutes, before a further washing and addition of TMB substrate solution.”

ABCA3 = assay: Exosome release after silencing of ABCA3 by lentiviral shRNA; assay type: cell-based, human
Method: as §4
As small molecules were used at the concentrations indicated: mTOR inhibitor rapamycin, COX-2 inhibitor indometacin, cholesterol synthesis inhibitor U18666A (all from Sigma). As fluorescent dyes CalceinAM and PKH26 were applied (both from Molecular Probes). […]
as §3

CCN(CC)CCO[C@H]1CC[C@@]2(C)C(=CC[C@@H]3[C@@H]2CC[C@]2(C)C(=O)CC[C@@H]32)C1 [U18666A]
CDC susceptibility / cytolytic activity of rituximab (lymphoma cells): Enhanced CDC Susceptibility | exosome shedding / release (OCI-Ly1 lymphoma cells): Inhibition of Exosome Shedding

GA101: therapeutic anti-CD20 monoclonal antibody (type II, Roche)
exosomal binding by FACS (exosomal CD20): Exosomal binding

B1: anti-ABCA3 shRNA: lentiviral shRNA silencing ABCA3, sequences SEQ ID NO: 1 and SEQ ID NO: 2 cloned into pLKO.1 (nucleic acid)
chain 1: CCGGGCCCAGCTCATTGGGAAATTTCTCGAGAAATTTCCCAATGAGCTGGGCTTTTTG
chain 2: AATTCAAAAAAAATTTCCCAATGAGCTGGGCCTCGAGGCCCAGCTCATTGGGAAATTT
modifications: the letters are possibly those of the target site
susceptibility to CDC (lymphoma cell lines; listed as lentiviral RNAi): significantly increased the susceptibility of the lymphoma cells to CDC-mediated lysis | susceptibility to CDC (lymphoma cell lines; listed as shRNA against ABCA3): increased susceptibility of lymphoma cell lines to CDC | exosome release vs mock transfected controls (ABCA3; 48 h, AChE activity, whole exosomal protein, flotillin-2, Balm-3): decreased exosome release | reduction of exosome release (ABCA3; Balm-3, Su-DHL-4 and OCI-Ly1): approximately 50%
